pKi: −log10 of the molar value. Like-named read-outs stand apart in the source and are kept apart here.
Experiments:
[1] = target: PP1γ, active form (His-tagged protein phosphatase 1 gamma) (UniProt P36873); experiment: enzyme inhibition kinetics
[2] = target: PP1γ, active form (His-tagged protein phosphatase 1 gamma) (UniProt P36873); experiment: enzyme inhibition kinetics; remark: listed apart in the source

Sequence of UniProt P36873 (P36873 whole entry): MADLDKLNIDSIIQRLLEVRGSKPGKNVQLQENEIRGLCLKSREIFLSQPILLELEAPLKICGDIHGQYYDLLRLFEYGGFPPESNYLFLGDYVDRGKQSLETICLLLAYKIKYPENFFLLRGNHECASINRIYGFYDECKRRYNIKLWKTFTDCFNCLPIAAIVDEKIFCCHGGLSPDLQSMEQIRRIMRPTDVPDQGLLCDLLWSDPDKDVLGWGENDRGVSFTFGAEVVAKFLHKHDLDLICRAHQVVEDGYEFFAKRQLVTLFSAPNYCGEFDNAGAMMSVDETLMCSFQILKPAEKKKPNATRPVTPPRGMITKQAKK

## His-tagged RRM1 (isolated RNA recognition motif 1 of SRSF1) (domain or fragment)
[1]
  pKi: 6.46
[2]
  pKi: 6.39

Reference: publication PMC5536852
